The record followed here is paper PMC4741384 (2016).

First the molecules themselves.
B1: full-length mCherry-lacR-MDC1 [human] / FN-TNKS1 (flag tag and NLS signal, pCDNA 3.1) [human] (parent complex)
chain 1: MEDTQAIDWDVEEEEETEQSSESLRCNVEPVGRLHIFSGAHGPEKDFPLHLGKNVVGRMPDCSVALPFPSISKQHAEIEILAWDKAPILRDCGSLNGTQILRPPKVLSPGVSHRLRDQELILFADLLCQYHRLDVSLPFVSRGPLTVEETPRVQGETQPQRLLLAEDSEEEVDFLSERRMVKKSRTTSSSVIVPESDEEGHSPVLGGLGPPFAFNLNSDTDVEEGQQPATEEASSAARRGATVEAKQSEAEVVTEIQLEKDQPLVKERDNDTKVKRGAGNGVVPAGVILERSQPPGEDSDTDVDDDSRPPGRPAEVHLERAQPFGFIDSDTDAEEERIPATPVVIPMKKRKIFHGVGTRGPGAPGLAHLQESQAGSDTDVEEGKAPQAVPLEKSQASMVINSDTDDEEEVSAALTLAHLKESQPAIWNRDAEEDMPQRVVLLQRSQTTTERDSDTDVEEEELPVENREAVLKDHTKIRALVRAHSEKDQPPFGDSDDSVEADKSSPGIHLERSQASTTVDINTQVEKEVPPGSAIIHIKKHQVSVEGTNQTDVKAVGGPAKLLVVSLEEAWPLHGDCETDAEEGTSLTASVVADVRKSQLPAEGDAGAEWAAAVLKQERAHEVGAQGGPPVAQVEQDLPISRENLTDLVVDTDTLGESTQPQREGAQVPTGREREQHVGGTKDSEDNYGDSEDLDLQATQCFLENQGLEAVQSMEDEPTQAFMLTPPQELGPSHCSFQTTGTLDEPWEVLATQPFCLRESEDSETQPFDTHLEAYGPCLSPPRAIPGDQHPESPVHTEPMGIQGRGRQTVDKVMGIPKETAERVGPERGPLERETEKLLPERQTDVTGEEELTKGKQDREQKQLLARDTQRQESDKNGESASPERDRESLKVEIETSEEIQEKQVQKQTLPSKAFEREVERPVANRECDPAELEEKVPKVILERDTQRGEPEGGSQDQKGQASSPTPEPGVGAGDLPGPTSAPVPSGSQSGGRGSPVSPRRHQKGLLNCKMPPAEKASRIRAAEKVSRGDQESPDACLPPTVPEAPAPPQKPLNSQSQKHLAPPPLLSPLLPSIKPTVRKTRQDGSQEAPEAPLSSELEPFHPKPKIRTRKSSRMTPFPATSAAPEPHPSTSTAQPVTPKPTSQATRSRTNRSSVKTPEPVVPTAPELQPSTSTDQPVTSEPTSQVTRGRKSRSSVKTPETVVPTALELQPSTSTDRPVTSEPTSQATRGRKNRSSVKTPEPVVPTAPELQPSTSTDQPVTSEPTYQATRGRKNRSSVKTPEPVVPTAPELRPSTSTDRPVTPKPTSRTTRSRTNMSSVKTPETVVPTAPELQISTSTDQPVTPKPTSRTTRSRTNMSSVKNPESTVPIAPELPPSTSTEQPVTPEPTSRATRGRKNRSSGKTPETLVPTAPKLEPSTSTDQPVTPEPTSQATRGRTNRSSVKTPETVVPTAPELQPSTSTDQPVTPEPTSQATRGRTDRSSVKTPETVVPTAPELQASASTDQPVTSEPTSRTTRGRKNRSSVKTPETVVPAAPELQPSTSTDQPVTPEPTSRATRGRTNRSSVKTPESIVPIAPELQPSTSRNQLVTPEPTSRATRCRTNRSSVKTPEPVVPTAPEPHPTTSTDQPVTPKLTSRATRRKTNRSSVKTPKPVEPAASDLEPFTPTDQSVTPEAIAQGGQSKTLRSSTVRAMPVPTTPEFQSPVTTDQPISPEPITQPSCIKRQRAAGNPGSLAAPIDHKPCSAPLEPKSQASRNQRWGAVRAAESLTAIPEPASPQLLETPIHASQIQKVEPAGRSRFTPELQPKASQSRKRSLATMDSPPHQKQPQRGEVSQKTVIIKEEEEDTAEKPGKEEDVVTPKPGKRKRDQAEEEPNRIPSRSLRRTKLNQESTAPKVLFTGVVDARGERAVLALGGSLAGSAAEASHLVTDRIRRTVKFLCALGRGIPILSLDWLHQSRKAGFFLPPDEYVVTDPEQEKNFGFSLQDALSRARERRLLEGYEIYVTPGVQPPPPQMGEIISCCGGTYLPSMPRSYKPQRVVITCPQDFPHCSIPLRVGLPLLSPEFLLTGVLKQEAKPEAFVLSPLEMSST
chain 2: MAASRRSQHHHHHHQQQLQPAPGASAPPPPPPPPLSPGLAPGTTPASPTASGLAPFASPRHGLALPEGDGSRDPPDRPRSPDPVDGTSCCSTTSTICTVAAAPVVPAVSTSSAAGVAPNPAGSGSNNSPSSSSSPTSSSSSSPSSPGSSLAESPEAAGVSSTAPLGPGAAGPGTGVPAVSGALRELLEACRNGDVSRVKRLVDAANVNAKDMAGRKSSPLHFAAGFGRKDVVEHLLQMGANVHARDDGGLIPLHNACSFGHAEVVSLLLCQGADPNARDNWNYTPLHEAAIKGKIDVCIVLLQHGADPNIRNTDGKSALDLADPSAKAVLTGEYKKDELLEAARSGNEEKLMALLTPLNVNCHASDGRKSTPLHLAAGYNRVRIVQLLLQHGADVHAKDKGGLVPLHNACSYGHYEVTELLLKHGACVNAMDLWQFTPLHEAASKNRVEVCSLLLSHGADPTLVNCHGKSAVDMAPTPELRERLTYEFKGHSLLQAAREADLAKVKKTLALEIINFKQPQSHETALHCAVASLHPKRKQVTELLLRKGANVNEKNKDFMTPLHVAAERAHNDVMEVLHKHGAKMNALDTLGQTALHRAALAGHLQTCRLLLSYGSDPSIISLQGFTAAQMGNEAVQQILSESTPIRTSDVDYRLLEASKAGDLETVKQLCSSQNVNCRDLEGRHSTPLHFAAGYNRVSVVEYLLHHGADVHAKDKGGLVPLHNACSYGHYEVAELLVRHGASVNVADLWKFTPLHEAAAKGKYEICKLLLKHGADPTKKNRDGNTPLDLVKEGDTDIQDLLRGDAALLDAAKKGCLARVQKLCTPENINCRDTQGRNSTPLHLAAGYNNLEVAEYLLEHGADVNAQDKGGLIPLHNAASYGHVDIAALLIKYNTCVNATDKWAFTPLHEAAQKGRTQLCALLLAHGADPTMKNQEGQTPLDLATADDIRALLIDAMPPEALPTCFKPQATVVSASLISPASTPSCLSAASSIDNLTGPLAELAVGGASNAGDGAAGTERKEGEVAGLDMNISQFLKSLGLEHLRDIFETEQITLDVLADMGHEELKEIGINAYGHRHKLIKGVERLLGGQQGTNPYLTFHCVNQGTILLDLAPEDKEYQSVEEEMQSTIREHRDGGNAGGIFNRYNVIRIQKVVNKKLRERFCHRQKEVSEENHNHHNERMLFHGSPFINAIIHKGFDERHAYIGGMFGAGIYFAENSSKSNQYVYGIGGGTGCPTHKDRSCYICHRQMLFCRVTLGKSFLQFSTMKMAHAPPGHHSVIGRPSVNGLAYAEYVIYRGEQAYPEYLITYQIMKPEAPSQTATAAEQKT

In the assay the parent is B1. Nature of the assay: lacO-array tethering colocalization (immunofluorescence) in U2OS17 cells; N = 100 cells in each experiment, three independent experiments; read off a plot.
In the case of chain 1 P951A, chain 1 E952A, chain 1 G953A, chain 1 L1996A, chain 1 E1997A, chain 1 G1998A, the screen value was about 3.7%.
The same measure for chain 1 P951A, chain 1 E952A, chain 1 G953A: about 30%.
The same measure for chain 1 L1996A, chain 1 E1997A, chain 1 G1998A: about 27%.
